Results taken from a protein production outcome set (Wang et al. 2014).

Assay: label from the status in PepcDB records

Sequence	protein production
PYNKNGFKVGMKLEGVDPEHQSVYCVLTVAEVCGYRIKLHFDGYSDCYDFWVNADALDIHPVGWCEKTGHKLHPPKGYKEEEFNWQTYLKTCKAQAAPKSLFENQNITVIPSGF	not failed
QADAGPDKELTLPVDSTTLDGSKSSDDQKIISYLWEKTQGPDGVQLENANSSVATVTGLQVGTYVFTLTVKDERNLQSQSSVNVIVKEE	not failed
QALDVLDDAGRKVLFTEARTANTFAEVAVADDELAMIWELARWSPSAANGQPLRVLFVRTPEGKERLGRHLDEGNRAKTLSAPAVAILAYDVDFHEQMPTVFPARGEMLRAAFADQTEKRESLAAYNSALQTGVFLLAVRAAGLAAGPMAGFDRAGVDEEFFAGTSWRSHLVVNIGHPGADPWFPRLPRVPVEDAVAYA	failed
QALPEKALDSFIVTGLSKRGWTTWLTAIVDSRVVAIAPFVIDLLDTRAALEHMYQSYGGNWPIAFTPYYLDEVDKKLDTASFAKLMQIIDPLQYMGTEYQSRLSIPKYIINASGDDFYVPDNTDFYYDKLPGEKALRVAPNASHSGIKAFSEQSLISFVNR	failed
QCPASVEKAIISSFSPVLNEPMLDYIDKAQVYLAAREKRKIGSLLNDTVGKHLPRLFKLYNYKHLIGLAEHEYGQIDFHISQIRTLSASNYVERFSSIKIPVLFINGEKDEYTTVEDARMFSNYIAKSSFNVVPDTGHFLDLESKAAWHHSQKTALSFLGT	not failed
QEIASRLPYFCSGCPHNSSTKVPDGSRAYAGIGCHYMVQWMDRNTQGFTHMGGEGANWIGEAPFSKTKHVFQNLGDGTYNHSGVQAIRAALAAGTNITYKILFNDAVAMTGGQENEGDLSAPRIVAELKAMGVKELAVVYDDKEDVDRSQFPSGIPFHERAELMQVQKRFREIAGVSAIVYIQTCAAEKRRRRKRGTFPDPDKRAFINTDICEGCGDCGVQSNCVSIVPKETELGRKRAIDQSSCNKDFSCVKGFCPSFVTVQGAKIRKEATAEIDL	failed
QEIKRYADEHEERYGRFPKTLIFAVQDLANSSSHADQIVDQARDIFGRGDSFVQKITGKVDRPLQRIREFRNRKEPGIAVTVDLLSTGVDVPDIEYIVFLRSMKSRILFEQMIGRGTRKGEH	failed
QKRLRRKLHEYQKNIPPQVRAARLADDINAKLGRPLQYQNRGRIEYLITLNGPEPHEYRNSPIDYQHYIDKQLKPVADAILPFIGTDFETLSAPQMGLF	failed
QMNTVFIKNEGVTEGEIATIGEHTAEISGVSTGTDWTRDYSQSGALRSLLGTVSTEKQGLPAEEVDEYLKKGYARNDRVGTSYLEKQYEDVLQGKKAKSEVVLDNNGKIVSQTPISKGEKGSNLKLTID	failed
QQKNMENKTLNENIPEMIISLEKEALASTDPMAFVELSDTDVIYFDPSLETKIEGLEQLRTYYKGMQLPPADHFDMIRPVVQVAQNIAVLTFNLDSYLSDKVIKWNCTEVYRRNPDNQWKIIQTHWSYVKPLD	not failed
QSGMKAELLDHGTAPVPSELAEYFPQVPEVALYHRLRCDEKTGEPTNHARNYVRPELAGRIDLDDLARWPMTKVLRDVVGMDISRITDTVEARLADPETARLLEVPLLSPILHYTGITYDLEGRVLDVAVIHYRGDRFSFTVTLDAT	failed
QSKTATVFLHGYNGGAYSTNYLIRKAEKAGAAQKALVVHVYKNGVMAFKGYWQKSIKNPMVQVVFQDNHASQKAQIYWLHQVLVQLKAKYGVKAYNAVGHSLGANDIVNQALKYGHDKRLPTLNKIVTIGGPFDGLTGFLSTQTEATVRRLDVKPSRFTKHFSEMLKYRHNFPDNVKLLNVYGDTNTGYNNDGFVGVASARSIRYLLRGKLTQYQEAFYSGEQAAHCALNQNPSVAHKMIAFLW	failed
QSLRSFQKQNEDNDKRQQILRSINVNVSSSEAETKYNELIKEAFLVNENGEKVEGDAFATDVVKAATEHQYPVFVANVDGQPKYIMALHGAGLWGPLWGYISVDSDKNTIYGADFSHQGETPGLGAEISKPVFSNEFKGKKIFMSGEFKSVAVVKPGKSVAGQDYVDGISGGTITSKGVDEMLFNSLSGYVKFLTSQN	not failed
QTVAQGKLTLSVPKAVGRFVIHPLMMAFFHRYPQVDVCLRLEDRPLDFIDDGIDLALRITDTPSPGLHGKPLMPIRHVICATEAYLQQHGTPYTPQDLRSHSCISLGETPADARWKFRREGKTETVQTYGRYAANHTAVR	failed
